The text below walks through data of PMC4341462, “Human RNASET2 derivatives as potential anti-angiogenic agents: actin binding sequence identification and characterization” (Oncoscience, 2014).

Assay [1] concerns the target T1, Actin from rabbit muscle (Sigma A2522) (rabbit, UniProt P68135 1-377). As to the kind of experiment: SPR; BIAcore 3000; actin amine-coupled to a CM5 chip; hRNASET2, trT2-50, trT2-50m or peptides injected at 5 concentrations, 10 μl/min, 25°C, HBS (10 mM Hepes, 150 mM NaCl, 3 mM EDTA, 0.005% Polysorbate 20); global fit with BIAevaluation 3.2. The conditions noted are these: both partners purified.

Assay [2] addresses T1, Actin from rabbit muscle (Sigma A2522). As to the kind of experiment: ELISA; solid-phase actin binding assay: 500 ng actin coated per well (MaxiSorp, carbonate-bicarbonate pH 9.5), blocked with 3% BSA; trT2-50, trT2-50m or peptides added in 1:2 dilutions from 500 ng/well in 100 μl TBS, 1 h 37°C; detected with rabbit anti-trT2-50 and goat anti-rabbit IgG-HRP, OD 655 nm; affinity by double reciprocal plot. To be noted: both partners purified.

B1: trT2-50m (truncated hRNASET2 identical to trT2-50 but missing E120-V141) (domain or fragment)
chain: EGCNRSWPFNLEEIKDLLPEMRAYWPDVIHSFPNRSRFWKHEWEKHGTCAAQVDALNSQKKYFGRSLELYRADFKDALARVYGVIPKIQCLPPSQDEEVQTIGQIELCLTKQDQQLQNCTEPGEQPSPKQEVWLANGAAESRGLRVCEDGPVFYPPPKKTKH
In assay [1], B1 gave a Kd of 500 nM, an off-rate (koff) of 0.00969 s⁻¹ and an on-rate (kon) of 19400 M⁻¹ s⁻¹. Also, in assay [2], the Kd turned out to be 34.5 nM.

The term Kd denotes the concentration at which binding is half-saturated. The koff is the rate constant with which the complex falls apart. Low readings indicate slow dissociation, high ones fast dissociation. What is called kon is the second-order rate constant of association. Lower therefore signals slow association.
